This is an account of results in patent publication US6107069A, “Recombinant kynurenine-3-hydroxylase enzyme and process for its preparation” (priority 1996, dated 2000).

The nature of series [1]: Activity of recombinant kyn-3-OHase expressed in E. coli (conversion of L-kyn to 3-OH-Kyn). Type of series: biochemical, human. The following applies: cells induced 2 h at 37° C. with 1 mM IPTG; 500 μM L-kyn, 1 hour at 37° C. Here is the method:
Recombinant kyn-3-OHase activity measured in cells grown at 37° C. until the OD600 reached 0.6, induced for 2 hours at 37° C. adding 1 mM IPTG was about 10 nmol/h·mg protein, enzymatic activity of uninduced cells in the same conditions was less than 5% (homogenates incubated for 1 hour at 37° C. with 500 μM L-kyn; see Example 5c).

A short description of series [2]: Rat kyn-3-OHase activity expressed in X. laevis oocytes (conversion of L-kyn to 3-OH-Kyn). Type of series: biochemical. Here is the method: Individual oocytes of stages were obtained by gentle agitation in ND solution plus 1-2mg/ml collagenase for 60-90 min. They were then maintained at 18° C. in ND solution enriched with 1.8 mM CaCl2 and 20 mg/l gentamycin. Oocytes of stages 5 and 6 were injected 24 hours later with 50 nl RNA or water (N. Dascal and I. Lotan 1992. Methods in Mol. Biol. 13: 205-225).
Oocytes were injected with a Drummond Nanoject microdispenser. To avoid accidental injection into the nucleus, the needle was inserted close to the equator or in the vegetal (light) half of the oocytes. 1-3 days after injection the oocytes were assayed for kyn-3-OHase.
Plasmid DNA was isolated by standard procedures (alkaline lysis followed by a purification on Qiagen resin; Kontron Zurich). Plasmids were linearized with Not I and used for in vitro synthesis and capping of cRNA using T7 RNA polymerase (Stratagene) and following the supplier's instructions. Initially the library was divided into 25 pools of ~2000 colonies; cRNA obtained transcribing the insert of each pool of colonies was injected in the oocytes and screened for the expressed kyn-3-Ohase activity (See Example 1c for the methods). The positive pool identified for its kyn-3-OHase expressed activity (175 pmoles/h/mg protein: about 30 fold higher than that induced by the injection of total kidney poly (A)^+ RNA) was then split into several sub-pools and assayed with the same procedure.
Xenopus l. oocytes were first injected with 25 ng of poly(A)^+ RNA isolated from rat kidney.
Increasing doses (range 0.1-25 ng) of cRNA, obtained from the positive clone, were injected into oocytes which were then tested for kyn-3-OHase activity in the presence of 100 mM of L-kyn. A linear dose-dependent effect was observed up to 5 ng cRNA/oocyte. At this dose the kyn-3-OHase activity was 35.7 nmoles/h/mg protein. No further increase of the activity was measured when higher cRNA doses were injected.

The conditions of series [3]: 5 steps purification from rat liver (Nisimoto 1975); cited from earlier work.
The conditions of series [4]: purified from rat liver (Nisimoto 1975); cited from earlier work.
[5] abbreviates: last round of library screening, cRNA-injected oocytes.

B1: Recombinant kyn-3-OHase: human kynurenine-3-hydroxylase, deduced protein of 486 amino acid residues, expressed in E. coli (protein, UniProt O15229 1-486, looked up)
Kynurenine 3-monooxygenase: MDSSVIQRKKVAVIGGGLVGSLQACFLAKRNFQIDVYEAREDTRVATFTRGRSINLALSHRGRQALKAVGLEDQIVSQGIPMRARMIHSLSGKKSAIPYGTKSQYILSVSRENLNKDLLTAAEKYPNVKMHFNHRLLKCNPEEGMITVLGSDKVPKDVTCDLIVGCDGAYSTVRSHLMKKPRFDYSQQYIPHGYMELTIPPKNGDYAMEPNYLHIWPRNTFMMIALPNMNKSFTCTLFMPFEEFEKLLTSNDVVDFFQKYFPDAIPLIGEKLLVQDFFLLPAQPMISVKCSSFHFKSHCVLLGDAAHAIVPFFGQGMNAGFEDCLVFDELMDKFSNDLSLCLPVFSRLRIPDDHAISDLSMYNYIEMRAHVNSSWFIFQKNMERFLHAIMPSTFIPLYTMVTFSRIRYHEAVQRWHWQKKVINKGLFFLGSLIAISSTYLLIHYMSPRSFLRLRRPWNWIAHFRNTTCFPAKAVDSLEQISNLISR
On to B1, for which the “Recombinant kyn-3-OHase activity” value in series [1] is recorded as “about 10 nmol/h·mg protein”.

B2: positive clone: cDNA clone encoding rat kyn-3-OHase, a deduced protein of 478 amino acid residues, expressed in Xenopus oocytes (protein)
chain: MASSDTEGKRVVVIGGGLVGALNACFLAKRNFQVDVYEAREDIRVANFMRGRSINLALSYRGRQALKAVGLEDQIVSKGVPMKARMIHSLSGKKSAIPYGNKSQYILSISREKLNKDLLTAVESYPNAKVHFGHKLSKCCPEEGILTMLGPNKVPRDITCDLIVGCDGAYSTVRAHLMKKPRFDYSQQYIPHGYMELTIPPKNGEYAMEPNCLHIWPRNAFMMIALPNMDKSFTCTLFMSFEEFEKLPTHSDVLDFFQKNFPDAIPLMGEQALMRDFFLLPAQPMISVKCSPFHLKSRCVLMGDAAHAIVPFFGQGMNAGFEDCLVFDELMDKFNNDLSVCLPEFSRFRIPDDHAISDLSMYNYIEMRAHVNSRWFLFQRLLDKFLHALMPSTFIPLYTMVAFTRIRYHEAVLRWHWQKKVINRGLFVLGSLVAIGSAYILVHHLSPRPLELLRSAWTGTSGHWNRSADISPRVPWSH
As for B2, the “kyn-3-OHase activity, cRNA dose-response” value in series [2] (5 ng cRNA/oocyte, 100 mM of L-kyn) is 35.7 nmoles/h/mg protein. Also, in series [2] (setting [5]), the “activity vs that induced by injection of total rat kidney poly(A)+ RNA” value is on record as “about 400 fold” and the “kyn-3-OHase activity, single positive clone” value is 3747 pmoles/h/mg protein.

B3: kyn-3-OHase: kyn-3-OHase isolated from the mitochondrial outer membrane of rat liver, molecular weight of 200,000 Da (protein)
chain: MASSDTEGKRVVVIGGGLVGALNACFLAKRNFQVDVYEAREDIRVANFMRGRSINLALSYRGRQALKAVGLEDQIVSKGVPMKARMIHSLSGKKSAIPYGNKSQYILSISREKLNKDLLTAVESYPNAKVHFGHKLSKCCPEEGILTMLGPNKVPRDITCDLIVGCDGAYSTVRAHLMKKPRFDYSQQYIPHGYMELTIPPKNGEYAMEPNCLHIWPRNAFMMIALPNMDKSFTCTLFMSFEEFEKLPTHSDVLDFFQKNFPDAIPLMGEQALMRDFFLLPAQPMISVKCSPFHLKSRCVLMGDAAHAIVPFFGQGMNAGFEDCLVFDELMDKFNNDLSVCLPEFSRFRIPDDHAISDLSMYNYIEMRAHVNSRWFLFQRLLDKFLHALMPSTFIPLYTMVAFTRIRYHEAVLRWHWQKKVINRGLFVLGSLVAIGSAYILVHHLSPRPLELLRSAWTGTSGHWNRSADISPRVPWSH
For the molecule B3, the “specific activity of purified enzyme” value in series [3] is 140 nmol/min/mg. For the same molecule, the isoelectric point in series [4] is 5.4 pH.
